Laboratory results: patent publication US20220259289A1 (Janssen / Centocor, published 2022)

Key:
[1] = molecular target: T1, human serum albumin (human, UniProt P02768 25-609); assay: ELISA, bacterial lysate on plate-bound antigen, luminescence
T1 construct: Negative control antigen of the screening ELISA; also called HSA
Procedure, shortened: (§1)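 Biotinylated CD137-Fc, an unrelated Fc-fusion protein or human serum albumin captured 1 h on streptavidin plates blocked in Starting Block T20; diluted bacterial lysate applied 1 h. Bound binders detected with HRP-conjugated anti-Centyrin antibody (PAB25) for 1 h, then POD substrate read-out.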
T1 sequence (P02768 25-609 limits assumed): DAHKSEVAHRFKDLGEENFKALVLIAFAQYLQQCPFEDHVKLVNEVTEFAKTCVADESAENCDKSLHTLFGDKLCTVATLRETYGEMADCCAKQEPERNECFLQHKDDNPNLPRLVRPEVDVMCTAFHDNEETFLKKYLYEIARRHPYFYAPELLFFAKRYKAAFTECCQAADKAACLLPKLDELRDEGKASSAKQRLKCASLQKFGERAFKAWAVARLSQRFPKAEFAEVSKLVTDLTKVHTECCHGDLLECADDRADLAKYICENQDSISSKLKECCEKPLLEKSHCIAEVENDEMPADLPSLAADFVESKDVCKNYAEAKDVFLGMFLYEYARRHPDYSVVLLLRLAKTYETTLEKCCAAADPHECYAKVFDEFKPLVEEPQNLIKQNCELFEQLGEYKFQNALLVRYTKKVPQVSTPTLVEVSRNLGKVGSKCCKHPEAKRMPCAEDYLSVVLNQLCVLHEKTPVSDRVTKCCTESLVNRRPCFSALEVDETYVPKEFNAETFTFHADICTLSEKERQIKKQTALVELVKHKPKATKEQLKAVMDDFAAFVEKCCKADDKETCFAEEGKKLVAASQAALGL

[2] = molecular target: T2, recombinant biotinylated human CD137 protein (Fc-fusion protein, R&D Systems 838-4B) (human, UniProt Q07011 24-186, biotinylated (site not stated)); assay: as above
T2 construct: Bought Fc fusion; The ELISA used the same antigen as the panning; also called CD137-Fc; biotinylated CD137; not shown: Fc part of the bought fusion protein
Procedure, shortened: as §1

[3] = molecular target: unrelated Fc-fused recombinant protein (negative control); assay: as above
[4] = molecular target: T3, human serum albumin (human, UniProt P02768 25-609); assay: ELISA, negative control HSA
T3 construct: Negative control of the ELISA; also called HSA
Procedure: (§2) Streptavidin-coated Maxisorp plates (Nunc catalog 436110) were blocked for 1 h in Starting Block T20 (Pierce) and then coated with biotinylated CD137 (using same antigen as in panning) or negative controls (an unrelated Fc-fused recombinant protein and human serum albumin) for 1 h. Plates were rinsed with TBST and diluted lysate was applied to plates for 1 h. Following additional rinses, wells were treated with HRP-conjugated anti-Centyrin antibody (PAB25) for 1 h and then assayed with POD (Roche catalog 11582950001).
T3 sequence (P02768 25-609 limits assumed): as above

[5] = molecular target: extracellular domain of human CD137 on the surface of CHO-K1 cells (human, UniProt Q07011 24-186); assay: flow cytometry on CHO-K1 cells with human CD137 ECD
Procedure: Cell surface binding was analyzed via flow cytometry. Cenyrins were prepared at a maximal concentration of 500 nM in the presence of 125 nM anti His-mIgG1 antibody and then serially diluted in PBS/1% FCS buffer. Samples were then applied to approx 100 000 CHO-Kl cells expressing the extracellular domain of human CD137 on their surface. Unbound Centyrin/Antibody complexes were washed away and bound FN3 domains were detected by the addition of goat anti mouse-FITC labeled antibody. Samples were then aquired by flow cytometry. Subsequently, Mean flurescence intensity was plotted against the log Centyrin concentration and EC50 values were calculated by nonlinear regression using GraphPad Prism.

[6] = molecular target: T4, recombinant biotinylated CD137 protein (Fc-fusion protein, R&D Systems 838-4B) (human, UniProt Q07011 24-186, biotinylated, sites not stated); assay: ELISA, lysate on biotinylated CD137-Fc
T4 construct: Bought Fc fusion; also called CD137-Fc
Procedure: as §2

[7] = molecular target: unrelated Fc-fused recombinant protein; assay: ELISA, negative control Fc protein

B1: ISOP120BR5P1E6 (designed binder, not shown: small tags and cut ends)
chain: LPAPKNLVVSRVTEDSARLSWLEGANAEFDSFLIQYQESEKVGEAIVLTVPGSERSYDLTGLKPGTEYTVSIYGVHWVGPWYPVSNPLSAIFTT
notes: FN3 domain (Centyrin); tested as E. coli lysate
[1]
  ELISA HSA (RLU): 400 RLU
[2]
  ELISA CD137-Fc (RLU): 779000 RLU
[3]
  ELISA Fc Control (RLU): 320 RLU

B2: ISOP120BR5P1B7 (designed binder, not shown: small tags and cut ends)
chain: LPAPKNLVVSRVTEDSARLSWGAKTRQFDSFLIQYQESEKVGEAIVLTVPGSERSYDLTGLKPGTEYTVSIYGVWWVENHFPVSNPLSAIFTT
notes: as for B1
[1]
  ELISA HSA (RLU): 480 RLU
[2]
  ELISA CD137-Fc (RLU): 565000 RLU
[3]
  ELISA Fc Control (RLU): 400 RLU

B3: ISOP120BR5P1E8 (designed binder, not shown: small tags and cut ends)
chain: LPAPKNLVVSRVTEDSARLSWNGGEYWVPRFDSFLIQYQESEKVGEAIVLTVPGSERSYDLTGLKPGTEYTVSIYGVVWLQWISWTDSNPLSAIFTT
notes: as for B1
[1]
  ELISA HSA (RLU): 640 RLU
[2]
  ELISA CD137-Fc (RLU): 906000 RLU
[3]
  ELISA Fc Control (RLU): 480 RLU

B4: ISOP120BR5P1G4 (designed binder, not shown: small tags and cut ends)
chain: LPAPKNLVVSRVTEDSARLSWAGHYRKIRNFDSFLIQYQESEKVGEAIVLTVPGSERSYDLTGLKPGTEYTVSIYGVKFPYYYATADSNPLSAIFTT
notes: as for B1
[1]
  ELISA HSA (RLU): 400 RLU
[2]
  ELISA CD137-Fc (RLU): 580000 RLU
[3]
  ELISA Fc Control (RLU): 480 RLU

B5: ISOP120BR5P1A5 (designed binder, not shown: small tags and cut ends)
chain: LPAPKNLVVSRVTEDSARLSWAGHYRKIRNFDSFLIQYQESEKVGEAIVLTVPGSKRSYDLTGLKPGTEYTVSIYGVKFPYYYATADSNPLSAIFTT
notes: as for B1
[1]
  ELISA HSA (RLU): 400 RLU
[2]
  ELISA CD137-Fc (RLU): 503000 RLU
[3]
  ELISA Fc Control (RLU): 640 RLU

B6: ISOP120GR5P1G3 (designed binder, not shown: small tags and cut ends)
chain: LPAPKNLVVSRVTEDSARLSWTAPDAAFDSFYIRYWEFCHSGEAIELSVPGSERSYDLTGLKPGTEYFVRIVGVKGGRVSLPLGAKFTT
notes: as for B1
[1]
  ELISA HSA (RLU): 320 RLU
[2]
  ELISA CD137-Fc (RLU): 1.34e+06 RLU
[3]
  ELISA Fc Control (RLU): 320 RLU

B7: ISOP120AR5P1C3 (designed binder, not shown: small tags and cut ends)
chain: LPAPKNLVVSRVTEDSARLSWSPVDADFTFDSFLIQYQESEKVGEAIVLTVPGSERSYDLTGLKPGTEYTVSIYGVGRHYTVYDSNPLSAIFTT
notes: as for B1
[1]
  ELISA HSA (RLU): 240 RLU
[2]
  ELISA CD137-Fc (RLU): 927000 RLU
[3]
  ELISA Fc Control (RLU): 320 RLU

B8: ISOP193AR9P1B10 (designed binder, not shown: small tags and cut ends)
chain: LPAPKNLVVSRVTEDSARLSWAFQWHIFDSFLIQYQESEKVGEAIVLTVPGSERSYDLTGLKPGTEYTVSIYGVGRHYTVYDSNPLSAIFTT
[4]
  ELISA HSA (RLU): 480 RLU
[5]
  EC50: 1.21 nM
[6]
  ELISA CD137 (RLU): 8.12e+06 RLU
[7]
  ELISA Fc Control (RLU): 1520 RLU

B9: ISOP120BR5P1F2 (designed binder, not shown: small tags and cut ends)
chain: LPAPKNLVVSRVTEDSARLSWTFHPTFEGFDSFLIQYQESEKVGEAIVLTVPGSERSYDLTGLKPGTEYTVSIYGVKWYAGIGYPVSNPLSAIFTT
notes: as for B1
[1]
  ELISA HSA (RLU): 240 RLU
[2]
  ELISA CD137-Fc (RLU): 299000 RLU
[3]
  ELISA Fc Control (RLU): 400 RLU

B10: ISOP120BR5P1C9 (designed binder, not shown: small tags and cut ends)
chain: LPAPKNLVVSRVTEDSARLSWAWNRHDFDSFLIQYQESEKVGEAIVLTVPGSERSYDLTGLKPGTEYTVSIYGVHWTVLRPFIDSNPLSAIFTT
notes: as for B1
[1]
  ELISA HSA (RLU): 560 RLU
[2]
  ELISA CD137-Fc (RLU): 1.27e+06 RLU
[3]
  ELISA Fc Control (RLU): 320 RLU

B11: ISOP120BR5P1B9 (designed binder, not shown: small tags and cut ends)
chain: LPAPKNLVVSRVTEDSARLSWAVEFNPTKFDSFLIQYQESEKVGEAIVLTVPGSERSYDLTGLKPGTEYTVSIYGVWWFEQWYPVSNPLSAIFTT
notes: as for B1
[1]
  ELISA HSA (RLU): 400 RLU
[2]
  ELISA CD137-Fc (RLU): 358000 RLU
[3]
  ELISA Fc Control (RLU): 560 RLU

B12: ISOP120BR5P1E4 (designed binder, not shown: small tags and cut ends)
chain: LPAPKNLVVSRVTEDSARLSWDDQFEDWFDSFLIQYQESEQVGEAIVLTVPGSERSYDLTGLKPGTEYTVSIYGVHTRDWTAWNASNPLSAIFTT
notes: as for B1
[1]
  ELISA HSA (RLU): 560 RLU
[2]
  ELISA CD137-Fc (RLU): 942000 RLU
[3]
  ELISA Fc Control (RLU): 320 RLU
